Key:
[1] = target: T1, recombinant GRP78 protein (human, UniProt P11021 19-650, limits assumed); test: Biacore SPR, multi-cycle kinetics, GRP78 amine-coupled to the chip, G2D03 as analyte 0.625-10 nM, 1:1 fit
T1 construct: also called HSPA5/GRP78 (Active Protein) Human Protein (ORIGENE, Cat. No. AR03021PU-L); glucose-regulated protein 78
From the text: (§1) This ligand has the optimum pH 4.0 condition for direct immobilization by pH scouting test. With amine coupling method, carboxyl groups on the surface of the sensor chip surface are first activated with a mixture of EDC and NHS to give reactive succinimide esters. GRP78 is then passed over the surface and the esters react with primary amine groups to link the ligand covalently to the dextran matrix. The target level of the GRP78 protein is about 300 RU.
(§2) For the multi-cycle kinetics analysis, the chip surface level is 291.2 RU and the analyte concentration is used for the moderate Rₘₐₓ, which is running through the conditions in the assay. The concentrations of the anti-GRP78 antibody G2D03 are: 0.625 nM, 1.25 nM, 2.5 nM, 5 nM and 10 nM. Set the flow rate at 30 μL/min. Association time is 120 seconds. Dissociation time is 360 seconds. Regeneration buffer is performed using 10 mM glycine-HCl pH 1.7. […] The binding affinity of the anti-GRP78 antibody G2D03 is better than the conventional anti-GRP78 antibody C38.

[2] = target: T1, recombinant GRP78 protein; test: Biacore SPR, multi-cycle kinetics, GRP78 amine-coupled to the chip, G2D03 as analyte 0.625-10 nM, 1:1 fit, kd/ka
From the text: as §1, §2

T1 sequence (P11021 19-650 limits assumed): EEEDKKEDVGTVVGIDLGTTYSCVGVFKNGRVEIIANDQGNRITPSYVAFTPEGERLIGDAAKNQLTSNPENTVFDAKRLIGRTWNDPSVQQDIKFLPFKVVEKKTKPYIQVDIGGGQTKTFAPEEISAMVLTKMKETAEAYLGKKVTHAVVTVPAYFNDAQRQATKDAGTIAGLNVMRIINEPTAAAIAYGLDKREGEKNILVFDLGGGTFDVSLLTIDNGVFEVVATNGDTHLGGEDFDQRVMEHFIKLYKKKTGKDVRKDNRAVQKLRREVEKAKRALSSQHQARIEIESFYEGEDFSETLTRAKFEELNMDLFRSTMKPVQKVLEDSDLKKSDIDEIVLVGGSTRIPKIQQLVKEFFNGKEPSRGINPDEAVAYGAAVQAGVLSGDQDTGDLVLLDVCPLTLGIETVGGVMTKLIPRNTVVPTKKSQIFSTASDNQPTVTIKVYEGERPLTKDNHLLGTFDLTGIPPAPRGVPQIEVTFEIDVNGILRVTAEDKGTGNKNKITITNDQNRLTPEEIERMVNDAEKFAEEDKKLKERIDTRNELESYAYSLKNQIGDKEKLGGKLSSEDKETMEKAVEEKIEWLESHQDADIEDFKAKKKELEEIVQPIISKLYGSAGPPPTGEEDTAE

B1: anti-GRP78 antibody G2D03 (antibody, V domains shown)
VH: EVQLVESGGGLVQPGGSLRLSCAASGFTFSQYAMAWVRQAPGKGLEWVSGISPYGSNTRYADSVKGRFTISRDNSKNTLYLQMNSLRAEDTAVYYCARNGGYSYTWFDLWGQGTLVTVSS
VL: DIQMTQSPSSLSASVGDRVTITCRASQSISSDLAWYQQKPGKAPKLLIYWASKLQSGVPSRFSGSGSGTDFTLTISSLQPEDFATYYCMQMYNTPPTFGQGTKVEIKR
notes: Detected with anti-human IgG; also called G2D03 mAb; anti-GRP78 monoclonal antibody (G2D03)
koff [1]: 0.000254 s⁻¹
kon [1]: 3.42e+06 M⁻¹ s⁻¹
Kd [2]: 0.0744 nM

From patent publication US20250019426A1 (UCT BIOSCIENCE, published 2025)
